This note sets out measurements from patent US20180155431A1 (Hoffmann-La Roche, published 2018).

The target of the experiment is T1, human angiopoietin 2 (human, UniProt O15123 19-496, limits assumed).
T1 construct: The protein was bought (R&D Systems Cat. No. 623-AN) or produced in house; also called ANG-2; ANGPT2
T1 sequence: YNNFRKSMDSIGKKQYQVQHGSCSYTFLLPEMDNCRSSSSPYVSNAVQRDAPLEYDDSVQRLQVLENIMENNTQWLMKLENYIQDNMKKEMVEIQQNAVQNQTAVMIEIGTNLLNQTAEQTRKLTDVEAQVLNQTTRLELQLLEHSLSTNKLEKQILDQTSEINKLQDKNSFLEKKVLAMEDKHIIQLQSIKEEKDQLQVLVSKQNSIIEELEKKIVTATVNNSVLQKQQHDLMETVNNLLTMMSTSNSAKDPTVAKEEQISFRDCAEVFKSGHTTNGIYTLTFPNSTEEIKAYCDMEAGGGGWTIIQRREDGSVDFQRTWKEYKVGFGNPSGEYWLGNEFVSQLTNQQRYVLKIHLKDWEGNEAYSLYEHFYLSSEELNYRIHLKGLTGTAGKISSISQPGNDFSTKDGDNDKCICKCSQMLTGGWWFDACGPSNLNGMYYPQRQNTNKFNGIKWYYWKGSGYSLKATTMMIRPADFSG
Briefly: ANG-2/Tie2 interaction ELISA: antibody dilutions pre-incubated with 0.2 ug/ml human ANG-2, then added to plate-coated human Tie2; bound ANG-2 detected. Here is the method:
After washing a mixture of 0.5 μg/ml biotinylated anti-Angiopoietin-1/2 clone (R&D Systems #BAF923, BAM0981 R&D Systems, UK) and 1:3000 diluted streptavidin HRP (Roche Diagnostics GmbH, DE, Cat. No. 11089153001) was added for 1 h. Thereafter the plates were washed 6 times with PBST. Plates were developed with freshly prepared ABTS reagent (Roche Diagnostics GmbH, DE, buffer #204 530 001, tablets #11 112 422 001) for 30 minutes at RT. Absorbance was measured at 405 nm.

B1: <ANG-2> LC06 (antibody, V domains shown)
VH: not shown
VL: QPGLTQPPSVSVAPGQTARITCGGNNIGSKSVHWYQQKPGQAPVLVVYDDSDRPSGIPERFSGSNSGNTATLTISRVEAGDEADYYCQVWDSSSDHYVFGTGTKVTVLG
B1 came in with a concentration for half-maximal inhibition (IC50) of 0.1 nM.
